# Measurements published in PMC11819540, “A new method for the reproducible development of aptamers (Neomers)”.
# B1: IL-6-6449 (ssDNA)
# DNA: TGTGTATAAGTCGCGAGGTTTGAATGCGAACCATCGGCGCCAACAAAACATTCAAACAGAAATCTACTAGTCAC
# modifications: thiol
# Target: Interleukin 6 (IL-6) (Homo sapiens, UniProt P05231 30-212)
# Test: SPRi; SPRi running buffer: 400 mM 6-aminohexanoic acid, 2 mM TETA, 100 mM NaCl, pH 5.7 ± 0.1, 25 °C; aptamers immobilized on gold, protein in flow at 50 µL/min
# Conditions: protein: commercial
# Chain of Interleukin 6 (IL-6) (P05231 30-212): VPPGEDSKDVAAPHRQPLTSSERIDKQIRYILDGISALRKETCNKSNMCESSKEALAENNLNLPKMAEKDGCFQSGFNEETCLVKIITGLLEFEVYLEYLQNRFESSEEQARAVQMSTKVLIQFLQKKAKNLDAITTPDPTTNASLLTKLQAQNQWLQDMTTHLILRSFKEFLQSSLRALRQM
row,Binder,Kd
1,"CAAGAGGGTTGAATTGCAACCATCGGC (ssDNA, thiol) [IL-6-7326.1]",27 nM
2,"GTCCTGAGGTGTGAATACAAACCATCGG (ssDNA, thiol) [IL-6-4202.1]",73.2 nM
3,B1,32.1 nM
